# From article PMC2323369, “Identification of a GTP-bound Rho specific scFv molecular sensor by phage display selection” (BMC Biotechnology, 2008)
# B1: C1 phage (scFv C1-pIII fusion protein displayed on phage) (scFv, V domains shown)
# VH: not shown
# VL: SSELTQDPAVSVALGQTVRITCQGDSLRSYYASWYQQKPGQAPVLVIYGKNNRPSGIPDRFSGSSSGNTASLTITGAQAEDEADYYCNSRDSSGNHAYVFGGGTKLTVL
# notes: VH of scFv C1 (human synthetic, Griffin.1 library); linker between VH and VL of the Griffin.1 library vector pHEN2; VL of scFv C1 (human synthetic, Griffin.1 library); source: monoclonal phage from E. coli supernatant (Griffin.1 library, phagemid pHEN2); not shown: 6xHis, C-terminal, kept; myc, C-terminal, kept
# B2: scFv C1-N1N2 (scFv, V domains shown)
# VH: not shown
# VL: B1 VL
# notes: VH of scFv C1, as in m1; linker between VH and VL of the vector pHEN2, as in m1; VL of scFv C1, as in m1; N-terminal portions N1 and N2 of the phage coat protein pIII of M13 (vector pHEN2); the C-terminal portion of pIII removed; The amber codon between the tags and gene III was mutated so that translation runs into pIII; an EcoRI site was put in after N2; Predicted mass 60 kDa; Smaller proteins …
# B3: GST-RBD (Rho binding domain of Rhotekin fused to GST) (domain or fragment)
# chain: ILEDLNMLYIRQMALSLEDTELQRKLDHEIRMRDGACKLLAACSQREQALEATKSLLVCNSRILSYMGELQRRKEAQVLEKTG
# Tests used:
# GST-RhoC (wild type) = molecular target: T1, GST-RhoC (wild type) (Homo sapiens (assumed), UniProt P08134); test: ELISA; GST proteins loaded with 200 μM GTPγS for 30 min and purified on glutathione ELISA plates; 10^10 clones of C1 phages in each well; anti-M13-HRP, TMB; settings: one partner purified
# T1 construct: Loaded with GDP or GTPγS as told in each assay; source: E. coli BL21, purified on glutathione-coated plates; not shown: GST, N-terminal, kept
# GST-RhoB (wild type) [1] = molecular target: T2, GST-RhoB (wild type) (Homo sapiens (assumed), UniProt P62745); test: as above; settings: one partner purified
# T2 construct: Loaded with GDP, GTP or GTPγS as told in each assay; The immunoprecipitation speaks only of recombinant RhoB without naming the GST; also called recombinant RhoB; source: E. coli BL21, purified on glutathione-coated plates; crude bacterial lysate (immunoprecipitation); not shown: GST, N-terminal, kept
# GST-Rac1 [2] = molecular target: T3, GST-Rac1 (Homo sapiens (assumed), UniProt P63000); test: as above; settings: one partner purified
# GST-Cdc42 [3] = molecular target: T4, GST-Cdc42 (Homo sapiens (assumed), UniProt P60953); test: as above; settings: one partner purified
# T4 construct: Cdc42, from a pGEX plasmid provided by Dr. A. Blangy; Loaded with GDP, GTP or GTPγS as told in each assay; also called GTP-Cdc42; source: E. coli BL21, purified on glutathione-coated plates
# GST-RhoB (wild type) [4] = molecular target: T2, GST-RhoB (wild type); test: pull-down; scFv C1-N1N2 from crude bacterial extract fixed on Ni-NTA beads; crude bacterial lysate with recombinant RhoA or RhoB loaded with 0.2 mM GTPγS (PBS, 10 mM EDTA, 30 min, 30°C); 45 min at 4°C; blot with anti-RhoA or anti-RhoB; called immunoprecipitation; settings: one partner purified
# GST-Rac1 [5] = molecular target: T3, GST-Rac1; test: ELISA; competition ELISA on a RhoAQ63L coated plate: scFvC1-N1N2 (0.4 μM) competed by increasing concentrations of GST-RBD, GDP bound RhoA, GTP bound Cdc42, GTP bound Rac1
# GST-Cdc42 [6] = molecular target: T4, GST-Cdc42; test: as above
# GST-RhoAQ63L = molecular target: T5, GST-RhoAQ63L (UniProt P61586 1-193, Q63L); test: ELISA + SPR; competition ELISA on a RhoAQ63L coated plate (scFvC1-N1N2 0.4 μM competed by increasing GST-RBD); KD of GST-RBD also determined by SPR on GST-RhoAQ63L
# T5 construct: GTP-locked mutant; source: E. coli BL21, purified on glutathione-coated plates; not shown: GST, N-terminal, kept
# T5 sequence (P61586 whole entry Q63L): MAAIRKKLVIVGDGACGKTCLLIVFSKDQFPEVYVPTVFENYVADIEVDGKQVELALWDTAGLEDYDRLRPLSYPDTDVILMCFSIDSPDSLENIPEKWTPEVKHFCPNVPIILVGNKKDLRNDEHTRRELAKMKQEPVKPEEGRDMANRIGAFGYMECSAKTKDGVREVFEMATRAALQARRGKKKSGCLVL
# T4 sequence (P60953 whole entry): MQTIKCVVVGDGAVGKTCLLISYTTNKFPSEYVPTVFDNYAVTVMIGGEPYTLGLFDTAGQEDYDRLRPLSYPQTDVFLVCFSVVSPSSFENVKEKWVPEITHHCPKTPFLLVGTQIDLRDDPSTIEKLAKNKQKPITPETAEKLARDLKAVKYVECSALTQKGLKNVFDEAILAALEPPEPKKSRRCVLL
# T2 sequence (P62745 whole entry): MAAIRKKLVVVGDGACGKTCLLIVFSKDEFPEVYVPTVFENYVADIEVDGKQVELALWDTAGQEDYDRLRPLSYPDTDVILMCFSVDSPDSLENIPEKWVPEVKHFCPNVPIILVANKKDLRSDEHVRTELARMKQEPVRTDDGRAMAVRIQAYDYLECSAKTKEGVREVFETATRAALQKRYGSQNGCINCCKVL
# T1 sequence (P08134 whole entry): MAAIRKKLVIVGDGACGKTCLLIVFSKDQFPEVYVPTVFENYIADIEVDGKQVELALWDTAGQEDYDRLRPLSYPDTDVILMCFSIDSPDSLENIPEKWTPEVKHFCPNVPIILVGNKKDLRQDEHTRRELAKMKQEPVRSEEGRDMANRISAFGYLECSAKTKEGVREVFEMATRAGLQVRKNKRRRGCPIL
binder,measurement,setting,value
B1,binding result,GST-RhoC (wild type),binds
same,binding result,GST-RhoB (wild type) [1],binds
same,binding result,GST-Rac1 [2],no binding (tested: 10^10 clones of C1 phages)
same,binding result,GST-Cdc42 [3],no binding (tested: 10^10 clones of C1 phages)
B2,binding result,GST-RhoB (wild type) [4],binds
same,Kd,GST-Rac1 [5],> 50 µM
same,binding result,GST-Rac1 [5],no binding (tested: > 50 μM)
same,Kd,GST-Cdc42 [6],> 50 µM
same,binding result,GST-Cdc42 [6],no binding (tested: > 50 μM)
B3,Kd,GST-RhoAQ63L,0.2 ± 0.2 µM
